# Data: the RNAGym collection of RNA variant scans (doi:10.1073/pnas.2313332121)
# Fewer inactive variants are shown than the library holds.
# B1: TPR 5TU (parent)
# chain: GGAUCUUCUCGAUCUAACAAAAAAGACAAAUCUGCCACAAAGCUUGAGAGCAUCUUCGGAUGCAGAGGCGGCAGCCUUCGGUGGCGCGAUAGCGCCAACGUUCUCAACUAUGACACGCAAAACGCGUGCUCCGUUGAAUGGAGUUUAUCAUG
# Variants of: B1
# Test: polymerase ribozyme fitness, log enrichment relative to wild type (log ratio); higher = more active; in vitro selection for triplet polymerase activity
# Outline: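 Fitness is a logarithmic measure of how a genotype enriched relative to the wild type, with replicate averages weighted by inverse variance. The logarithm uses base 2, and enrichment came from Illumina sequencing of input and output libraries. Those libraries were PCR-built, transcribed mutants of each subunit of a heterodimeric triplet polymerase ribozyme, passed through one triplicate in vitro selection round that included frozen incubation at −7 °C, gel excision of extended constructs and streptavidin-bead capture. Genotypes were kept only if they had ≥10 input reads and ≥1 read per output.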
row,Variant,polymerase ribozyme fitness (log ratio)
1,A3U C32U G59A G83C C129U A137C,≤ -4.2
2,C5G U55G A73U,-3.69
3,C5A C10G C85A C118G,-3.84
4,U4A G136A,0.134
5,A3U C57U C85A C118U C125A,-2.55
6,A3U G74A C75G A91U A120U C132U,≤ -4.2
7,U4C A23C C43U G46A G84A C105G C118U A119C,≤ -4.2
8,C5G C87U A98G,-1.31
9,C5G A12G A19U C75A C103G C114U G117A A121C A142U,≤ -4.2
10,C5G C63A,0.429
11,C5A A30U U77A G92U,≤ -4.2
12,A3U A30G A52U C79G G88U C95U A115G A120C G133U,-4.13
13,C5G C32U U53G A73U C85U,≤ -4.2
14,C5G U31A A147C,-0.56
15,A3U C5U C35G A37G G86U A89G U104C C125G C131G,≤ -4.2
16,U4A U56A,-0.0652
17,C5G G46C G50C C129U U134C C149U,≤ -4.2
18,C5A G86U G141A,-1.49
19,A3U A30C C36A A60U G84A C85A G140C U146C,≤ -4.2
20,C5G U139A,-3.99
21,C5G C51A,-1.01
22,C5G U53A C54G U77G U82C G92C C129G U144C,≤ -4.2
23,C5G C76U G84U A113U A122U,-4
24,C5G U45C,-1.55

row,Variant,polymerase ribozyme fitness (log ratio)
1,C5G C85G,-1.46
2,C5G C85U,-1.17
3,C5G A12U C27G A49C C54U U61A C93G C95A A119G U134A A150C,≤ -4.2
4,C5A A24U C36U G86A C87A U90G C93A,≤ -4.2
5,C5G G11U A17U A39U C57G A73G C79U A138G G141C U144G,≤ -4.2
6,U4A G84A C99U U109G A120C G152C,-3.96
7,C5A A20U A47U G74C G117A G126U,≤ -4.2
8,U4A U6G G67C U82A U130G G143C,≤ -4.2
9,A3U C5G A21U A30G C93A U148A,≤ -4.2
10,U4G C38U G86C C105G A138C,≤ -4.2
11,U4C A147C,-0.0283
12,U4G C99U,-0.868
13,U4A U31G A37C G86C C123G,≤ -4.2
14,A3U A41G C85U G126U U144A,-1.79
15,U4C C18U U53A A73G U134C,-2.31
16,C5A A24C G80C C149G,≤ -4.2
17,A3U A41C C95U C99G C118A G136A U144G,-3.81
18,C5G A20U U33G A39C U55G C57A A91G A138C,≤ -4.2
19,C5G U15G A49U A91U C116A C149G,≤ -4.2
20,A3U C27U G81A C96A,-3.11
21,U4C A52G G59U U145G,-1.5
22,U4G A30G A91G G94C G128U C132A,≤ -4.2
23,U4C C76U,-0.762
24,A3U C18G A22G G94C C131U,≤ -4.2

row,Variant,polymerase ribozyme fitness (log ratio)
1,A3U U6G C35U C76U C87G C103A A137C G152A,≤ -4.2
2,C5G A21U G59A,-0.0281
3,U4A U13C C36U C96G,-2.21
4,C5A G50U G84A U135A U139A G141C,≤ -4.2
5,U4C C5A U15C C36G U53A,-4.12
6,U4A A66C A89U C93A C125G G143A,≤ -4.2
7,C5A A12G C35A G42A C96U,≤ -4.2
8,C5A C57U G86A A120G G141C,-2.54
9,C5A C76U C93A,-1.5
10,U4A C8U G46C C93A G100A C118U,≤ -4.2
11,U4A A17U A66G C69A G84U A138U,≤ -4.2
12,C5U A19G U135C G141U,-3.73
13,A3U U90C A97G A150G,-3.73
14,C5A A91U,-4.1
15,C5G G50U G84U,-1.65
16,C5A C54U C75G G80C U82A C87U C99G,≤ -4.2
17,U4A G84U C85U G117U U145C,-2.29
18,C5G U55A C85U C116U,-1.06
19,C5G G86U,-2.77
20,C5G G50A G59C C76A G83A C103G C114A,≤ -4.2
21,C5G G152C,-2.87
22,U4G G67A C85U C116A A122U A150U G152C,≤ -4.2
23,C5G A41C U134C,-1.61
24,A3U A37U G42C C57U C95A A120G,≤ -4.2

row,Variant,polymerase ribozyme fitness (log ratio)
1,C5A C14U C32A U33A A47U U82G G92U G126C U135G,≤ -4.2
2,C5G U6A A28U A30U A39C U45C U53A C57A C96G A115U C129U G140C,-3.81
3,A3U G50U U145C,-0.472
4,C5A A20C A41G C93A A147C,-1.66
5,U4G C54G C96G A137G,-4.19
6,C5A C96A G143C,-3.53
7,A3U U4C G88U G92U A97G,≤ -4.2
8,U4A C36G C131A G136A,≤ -4.2
9,C5G G80A,0.101
10,C5U A22U C69A G88U,≤ -4.2
11,C5A U55A G58C G68U G81A A91U C96A,≤ -4.2
12,U4C A24U U61A,-1.7
13,U4G C51G A73U C87U C96A G117A,≤ -4.2
14,U4A C10U A23C C57U G81A G92C A115C C118A,≤ -4.2
15,U4A G25U C54U G92U G124A,-2.53
16,A3U G94A G117C A137G,-3
17,U4C A47C G84A G88A G92U A142G,≤ -4.2
18,C5A G59U C69U G94U A98G U102G U135C,≤ -4.2
19,U4C G50C G62A G84A G92C,≤ -4.2
20,U4A C93U,-1.34
21,C5A A30C U82G U102C C131U,≤ -4.2
22,C5A C57U C95U C103G,-2.24
23,U4G G48A U77G G83C U135A,≤ -4.2
24,U4C C8A G59A,-4.18

row,Variant,polymerase ribozyme fitness (log ratio)
1,A3U C10U G25C A52G G88C A97U G100C U144G,≤ -4.2
2,C5G U53G G92A C103A U111G A120U,≤ -4.2
3,C5A A29U A52C G74A A97G,≤ -4.2
4,C5A C85U C95G,-1.93
5,C5G A24C A28C U55G G58A C63U C105G A137G U151G,≤ -4.2
6,U4A A12C G50A G84U G141U,-3.8
7,C5A A39U C85U U90G C118U C125U,≤ -4.2
8,C5G A52C C85U,-2.14
9,C5G C10U C57U C95U,-2.04
10,U4A A21G G68A A73G G86U A142G,≤ -4.2
11,U4A U6A A40U G46C C96A C118A,-3.94
12,C5G C85U G88U C105G A119C,≤ -4.2
13,A3U C35U U77C G84C A89G C118U,≤ -4.2
14,A3U C93U G141A U146G,-2.5
15,C5G A12G C63U G84C C96U,≤ -4.2
16,U4G U61G C76G C93G C103U,≤ -4.2
17,C5U A17C C54A C85A C93U C105G A113G G141A,≤ -4.2
18,U4G C36A U55A U61A C76U C87U,≤ -4.2
19,C5A G34A,0.15
20,U4C A49U C93A,-3.07
21,A3U A52C C75U G92U C103G U134G,≤ -4.2
22,C5A U13G C27A C36A C51U C87A,≤ -4.2
23,U4C G58A C103A G124A,-3.54
24,C5A G86U G92U C116G,-0.979

row,Variant,polymerase ribozyme fitness (log ratio)
1,C5A A22U A24U C27G A39C C57U A60U C85G,≤ -4.2
2,A3U U56A G83A C85U A91G C95U C99A U144G,≤ -4.2
3,C5A U31C C36A G62C A66G C85G U104A,≤ -4.2
4,U4G A23C A30U A52C U56A,≤ -4.2
5,U4A A21U G50A G68A G74A C75G C93U A107C C131G,≤ -4.2
6,C5G G68C C131U C132G U145G A150C,≤ -4.2
7,A3U U56A G88C U145G,-3.98
8,C5U A20U G50C G81A G117A C132U,≤ -4.2
9,C5A U6C A30U A91U C118A A138G,≤ -4.2
10,A3U A37C G84U,-2.36
11,U4A G84A U101G,-0.65
12,C5G A17G C93G C95U,-3.96
13,A3U C5U C87U C96G C131A,≤ -4.2
14,U4G A30G C32A C85A G141C,≤ -4.2
15,A3U A28U C57U C75G,≤ -4.2
16,U4A C57G G83A,-1.23
17,A3U C10U U15C,-1.19
18,U4A G94C,-0.637
19,U4A U139C,-4.08
20,C5A A12U U13A U15A G83U C95U A107U C108U,≤ -4.2
21,U4G C85U U134G U145G,-2.85
22,C5A U53A C93U C125A G152A,-4.17
23,C5A G68C G80C C85G A138G,≤ -4.2
24,A3U A147C,-0.51

row,Variant,polymerase ribozyme fitness (log ratio)
1,C5A C57A C76U G81A G92C C132U,-2.21
2,C5A G58C A60G G92A A121U,-1.56
3,U4C A115G,-1.57
4,A3U G59U,-0.0606
5,U4G A23U G68A U127A,≤ -4.2
6,U4A C27U C38U C51U A106G U109A,-3.72
7,C5G A20C C32A G50C G124C G141C,≤ -4.2
8,C5A G11C G50U G58C C85A,-2.8
9,U4C C32G C103G,≤ -4.2
10,C5U A22U A98G A122U,0.571
11,A3U A89C C95A A110C,≤ -4.2
12,A3U G62U,-0.505
13,U4A C76A C93A A115G G124C C149U,≤ -4.2
14,A3U A37G G59U G86A C99A U130C G141U,≤ -4.2
15,A3U C72U C79G G92U,≤ -4.2
16,C5G G124C,-0.88
17,A3U C57A G71A A91G,≤ -4.2
18,C5A U33G C38U A49C G67C G92C,≤ -4.2
19,U4C G58C,0.358
20,U4G G25U G48U U55G G84C A115C U134C,≤ -4.2
21,C5G A37U G83C C129A U145A,≤ -4.2
22,C5G G81A A98G A121U G143C,-2.76
23,A3U A29C G68C A73G,≤ -4.2
